Test results reported in US10787640B2, “Producing mesodermal cell types and methods of using the same” (The Board of Trustees of the Leland Stanford Junior …, priority 2015, dated 2020).

What was measured:
[1] = system: hESC-derived primitive streak; assay: Paraxial versus lateral/cardiac mesoderm specification from primitive streak; format: cell-based, human
Method: (§1) Subsequently, day 1 anterior primitive streak was briefly washed (DMEM/F12) and differentiated towards day 2 paraxial mesoderm for 24 hours (1 μM A-83-01+3 μM CHIR99021+250 nM LDN-193189+20 ng/mL FGF2). Separately, day 1 mid primitive streak was differentiated towards day 2 lateral mesoderm for 24 hours (1 μM A-83-01+30 ng/mL BMP4+1 μM C59; with 2 μM SB-505124 sometimes used instead of A-83-01).
B) To assess whether FGF/ERK signaling was permissive for both paraxial and lateral/cardiac mesoderm specification, hESCs were differentiated into primitive streak for 24 hours, and then transferred into (i) A-83-01+DM3189 (“AD”; permissive for paraxial mesoderm) or (iii) A-83-01+BMP4+C59 (“AB+C59”; permissive for lateral/cardiac mesoderm) for 24 hours in the presence or absence of a FGF agonist (FGF2, 10-20 ng/mL), an FGFR inhibitor (PD173074, 100 nM) or a MAPK/ERK inhibitor (PD0325901, 500 nM) for 24 hours and qPCR for all experiments was conducted on day 2 (that is, after 48 total hours of hESC differentiation). To assess whether TGFβ signaling altered paraxial, intermediate and lateral/cardiac mesoderm specification, hESCs were differentiated into primitive streak for 24 hours, and then transferred into (ii) DM3189+FGF2 (“DF”; permissive for paraxial mesoderm) or (iv) BMP4+C59 (“B+C59”; permissive for lateral/cardiac mesoderm) for 24 hours in the presence of a TGFβ agonist (Activin, 10-25 ng/mL) or a TGFβR inhibitor (A-83-01, 1 μM) for 24 hours or (v) BMP4 (3 ng/mL)+FGF2 (20 ng/mL) (“B3F20”) for 24 hours in the presence of a TGFβ agonist (Activin, 3-25 ng/mL) or a TGFβR inhibitor (A-83-01, 1 μM) and qPCR for all experiments was conducted on day 2 (that is, after 48 total hours of hESC differentiation). […] Therefore, hESCs were differentiated towards primitive streak for 24 hours, and then subsequently transferred into (i) A-83-01+CHIR99021+FGF2 (ACF) in the presence or absence of one of two BMPR inhibitors (DMH1, 1 μM or LDN193189, 250 nM) for 24 hours and qPCR was conducted on day 2. Alternately, hESC-derived PS was transferred into (ii) CHIR99021+DM3189+FGF2 (CDF) for 24 hours in the presence or absence of a TGFβ agonist (25 ng/mL Activin) or one of two TGFβR inhibitors (SB-505124, 2 μM or A-83-01, 1 μM) for 24 hours and qPCR was conducted on day 2. […] E) To test the role of FGF in lateral mesoderm induction (on day 2 of hESC differentiation), NKX2.5-GFP hESCs were differentiated into mid primitive streak for 24 hours, and then were treated with BMP4+C59+SB505124 in the presence of an FGF agonist (FGF2, 20-50 ng/mL) or a FGFR inhibitor (PD173074, 100 nM) or a MAPK/ERK inhibitor (PD0325901, 500 nM) for 24 hours, and then all cultures were treated with BMP4+C59+SB505124+FGF2 for 24 hours more before being harvested on day 3 for FACS.

hESCs = assay: Downstream mesoderm potential of PS induced with Activin or BMP4; format: cell-based, human
Method: as §1
E) To assess whether inducing PS in the presence of TGFβ signaling altered its downstream potential to form different kinds of mesoderm, (i) H7 hESCs were differentiated into PS with CHIR99021+FGF2+PIK90 (CFK) for 24 hours in the presence or absence of increasing amounts of Activin (10-100 ng/mL), and then were transferred into paraxial mesoderm induction conditions (A-83-01+CHIR99021+DM3189+FGF2) for 24 hrs, and qPCR was conducted or (ii) H7 hESCs were differentiated into PS with BMP4 (10 ng/mL)+CHIR99021+FGF2+PIK90 (B10CFK) for 24 hours in the presence or absence of increasing amounts of Activin (10-100 ng/mL), and then were transferred into lateral/cardiac mesoderm inductions (A-83-01+BMP4+C59) for 24 hours and qPCR was conducted. […] F) To assess whether inducing PS in the presence of BMP signaling altered its downstream potential to form different kinds of mesoderm, H7 hESCs were differentiated into PS with Activin (10 ng/mL)+CHIR99021+FGF2+PIK90 (A10CFK) for 24 hours in the presence of absence of increasing amounts of BMP4 (1-40 ng/mL), and then were (i) transferred into paraxial mesoderm induction conditions (A-83-01+CHIR99021+DM3189+FGF2) for 24 hrs, and qPCR was conducted or were (ii) transferred into lateral/cardiac mesoderm inductions (A-83-01+BMP4+C59) for 24 hours and qPCR was conducted. […] G) H7 hESCs were differentiated into anterior primitive streak (30 ng/mL Activin+4 μM CHIR99021+20 ng/mL FGF2+100 nM PIK90) in the presence or absence of BMP4 (10 ng/mL) for 24 hours, and then transferred into paraxial mesoderm induction conditions for 24 hours before TBX6 immunostaining was conducted. […] H) NKX2.5-GFP hESCs were differentiated into primitive streak with BMP4+CHIR99021+FGF2+PIK90 for 24 hours in the presence or absence of increasing doses of Activin (10-100 ng/mL), and then transferred into suboptimal lateral/cardiac mesoderm induction conditions (A-83-01+BMP4+C59, without FGF2) for 48 hours and FACS was performed after 72 hours of total differentiation to quantify NKX2.5-GFP^+ cell percentages. […] I) Efficient MIXL11^+ PS specification is highly reproducible in both anterior and mid PS differentiation conditions (“APS” and “MPS”, respectively) across 4 independent differentiation experiments, as assayed by a MIXL1-GFP knock-in reporter hESC line. Each circle or triangle represents an individual experiment and the average differentiation efficiency attained across all experiments is indicated.

Cc1cccc(-c2[nH]c(C(C)(C)C)nc2-c2ccc3c(c2)OCO3)n1 [SB-505124, 2-[4-(1,3-Benzodioxol-5-yl)-2-(1,1-dimethylethyl)-1H-imidazol-5-yl]-6-methyl-pyridine]
paraxial mesoderm induction (qPCR day 2) ([1]; ACF with DMH1 1 μM or LDN193189 250 nM, CDF with SB-505124 2 μM or A-83-01 1 μM, 24 hours): serve to induce paraxial mesoderm
NKX2.5-GFP+ cardiac mesoderm induction (FACS day 3) ([1]; BMP4 (50 ng/mL)+C59, 48 hours, SB-505124 2 μM or A-83-01 1 μM, P<0.01): increased NKX2.5-GFP^+ cardiac mesoderm induction

B1: BMP4: BMP family ligand, BMP agonist (protein, UniProt P12644 293-408, looked up)
Bone morphogenetic protein 4: SPKHHSQRARKKNKNCRRHSLYVDFSDVGWNDWIVAPPGYQAFYCHGDCPFPLADHLNSTNHAIVQTLVNSVNSSIPKACCVPTELSAISMLYLDEYDKVVLKNYQEMVVEGCGCR
paraxial mesoderm potential of PS (qPCR) (hESCs; PS induced in A10CFK with BMP4 (1-40 ng/mL)): strongly blocked paraxial mesoderm potential
lateral/cardiac mesoderm potential of PS (qPCR) (hESCs; PS induced in A10CFK with high BMP4 (40 ng/mL)): maximized lateral/cardiac mesoderm potential
TBX6 immunostaining after paraxial mesoderm induction (hESCs; anterior PS induced with BMP4 (10 ng/mL), 24 hours): larger numbers of TBX6^− clusters of non-paraxial mesoderm cells
lateral mesoderm specification (qPCR) ([1]; A8301+C59, 24 hours, BMP4 10-30 ng/mL): required to drive lateral mesoderm specification

B2: Activin: TGFβ agonist (protein, UniProt P08476 311-426, looked up)
Inhibin beta A chain: GLECDGKVNICCKKQFFVSFKDIGWNDWIIAPSGYHANYCEGECPSHIAGTSGSSLSFHSTVINHYRMRGHSPFANLKSCCVPTKLRPMSMLYYDDGQNIIKKDIQNMIVEECGCS
modifications: Inhibin beta A chain
notes: TGFβ agonist
lateral/cardiac mesoderm potential of PS (qPCR) (hESCs; PS induced in B10CFK with lower Activin (e.g., 10 ng/mL)): had maximal lateral/cardiac mesoderm potential
paraxial mesoderm potential of PS (qPCR) (hESCs; PS induced in CFK with higher Activin doses (e.g., 30 ng/mL)): instilled paraxial mesoderm potential
NKX2.5-GFP+ cell percentages (FACS, 72 hours) (hESCs; higher Activin doses (50-100 ng/mL) during PS induction): less effective
NKX2.5-GFP+ cell percentages (FACS, 72 hours) (hESCs; low to moderate Activin during PS induction): maximizes subsequent differentiation into NKX2.5-GFP^+ cardiac mesoderm
